Test results from patent publication US20250042997A1 (PHYLAXIS BIOSCIENCE, published 2025).
Numbering of substitutions follows the chain as printed. Read-outs that look alike come from different tables or passages of the source. One block for each binder: values may come before it.

Key:
[1] = target: T1, human Siglec-8 (full-length, on transfected CHO or 293 cells, or native on human eosinophils) (human, UniProt Q9NYZ4 17-499); assay: flow cytometry on CHO cells transfected with human Siglec-8; labelled anti-human Fc-gamma secondary; Median RL1-H
Procedure: In additional studies, the parental llama G2 sequence was humanized and multivalent hzSiglec8-G2v14-Fc antibodies were cloned with a reduced effector function xELL human Fe. Binding of bivalent (ex11422; SEQ ID NO: 5 linked to an Fe xELL via linker 2), tetravalent (cx11580; SEQ ID NO: 9 linked to an Fe xELL via linker 2), and hexavalent (cx11579; SEQ ID NO: 10 linked to an Fe xELL via linker 2) hzSiglec8-G2v14-Fc antibodies were assessed by flow cytometry using CHO cells transfected with human Siglec-8. A titration series of the fusion proteins were incubated with the Siglec8-expressing CHO cells (5×10⁴ cells/well) for 30 minutes at 4° C. in FACS Buffer (PBS 1% BSA, 0.1% NaN3 pH 7.4) in 96 well plates. Following one 150 μL wash with FACS buffer, an APC-conjugated anti-human Fcγ specific secondary antibody (Jackson ImmunoResearch) was added, and cells were incubated for 30 minutes at 4° C. Following one additional wash in FACS buffer, bound antibodies were detected via flow cytometry (iQue Intellicyte).
The calculated affinity was similar between the bivalent, tetravalent, and hexavalent hzSiglec8-G2v14-Fc antibodies. The observed Bmax was reduced with increasing valency as anticipated, due the fact that the Fc portion of the antibody was detected in this assay and the ratio of Fc regions to anti-Siglec-8 binding domains is inverse to valency.

[2] = target: T1, human Siglec-8 (full-length, on …); assay: cell-based or functional assay
[3] = target: T1, human Siglec-8 (full-length, on …); assay: flow cytometry on 293 cells transiently transfected with full-length human Siglec-8; A647 anti-human Fc-gamma secondary; median fluorescence, nonlinear fit; table under the graph
Procedure: (§1) The binding of the lmG2 and humanized versions (further including Siglec8 hzG2v14), formatted as monomeric VHH-hIgG1 fusions proteins using a non-dimerizing human IgG1 Fe variant region lacking a hinge Fe NNT, was assessed by flow cytometry using 293 cells that had been transiently transfected with full-length human Siglec-8 and detected with an anti-human AF647 secondary antibody. Binding specificity was assessed using untransfected 293 cells as a control. For the binding assays, Siglec-8 293 cells or untransformed 293 cells were seeded in a 96 well U-bottom plate with 50 k cells/well in FACS buffer and incubated at 4° C. with a titration of anti-Siglec8-VHH-NNT for 30 minutes. After washing, the plates were incubated with an A647-conjugated anti-human Fcγ specific secondary antibody diluted 1:10,000 in FACS buffer for 20 minutes at 4° C. The plates were washed, and binding was determined by flow cytometry quantitating anti-human A647 median fluorescent intensity. The maximum specific binding (Bmax) and affinity (Kd) for was determined from the flow cytometry binding data using a nonlinear fit model.

[4] = target: T1, human Siglec-8 (full-length, on …); assay: flow cytometry on 293 cells transiently transfected with full-length human Siglec-8; A647 anti-human Fc-gamma secondary; median fluorescence, nonlinear fit; table under the graph (Kd column without unit, concentration axis nM Ab)
Procedure: as §1

[5] = target: T1, human Siglec-8 (full-length, on …); assay: as above; remark: listed apart in the source
Procedure: as §1

[6] = target: T1, human Siglec-8 (full-length, on …); assay: flow cytometry on 293 cells transiently transfected with full-length human Siglec-8; A647 anti-human Fc-gamma secondary; median fluorescence, nonlinear fit; table under the graph; remark: listed apart in the source
Procedure: as §1

[7] = target: T1, human Siglec-8 (full-length, on …); assay: as above; remark: listed apart in the source
Procedure: as §1

[8] = target: T1, human Siglec-8 (full-length, on …); assay: flow cytometry on 293 cells transiently transfected with full-length human Siglec-8; A647 anti-human Fc-gamma secondary; median fluorescence, nonlinear fit; table under the graph (Kd column without unit, concentration axis nM Ab); remark: listed apart in the source
Procedure: as §1

T1 sequence (Q9NYZ4 17-499): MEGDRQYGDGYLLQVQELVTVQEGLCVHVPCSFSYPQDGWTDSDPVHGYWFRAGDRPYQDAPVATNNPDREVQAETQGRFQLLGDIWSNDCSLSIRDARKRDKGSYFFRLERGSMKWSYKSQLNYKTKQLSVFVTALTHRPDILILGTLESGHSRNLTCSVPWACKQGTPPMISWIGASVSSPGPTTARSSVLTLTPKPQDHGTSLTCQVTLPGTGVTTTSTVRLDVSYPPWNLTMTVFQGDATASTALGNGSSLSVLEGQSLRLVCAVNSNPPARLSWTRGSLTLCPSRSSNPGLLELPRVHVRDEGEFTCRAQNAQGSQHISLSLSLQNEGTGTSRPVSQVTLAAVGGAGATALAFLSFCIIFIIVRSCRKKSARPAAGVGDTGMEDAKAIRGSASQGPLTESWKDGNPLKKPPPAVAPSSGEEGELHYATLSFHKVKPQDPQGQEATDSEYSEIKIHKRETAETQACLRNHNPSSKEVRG

EC50 (read off the curve) [1]: ~40 pM
B1: tetravalent hzSiglec8-G2v14-Fc (xELL) (Fc fusion)
chain: EVQLLESGGGEVQPGGSLRLSCAASGSISIFSMYVVAWYRQAPGKEREWVAFIQRGGTANYAESAKGRFTISRDNAKNTVYLQMSSLRAEDTAVYYCNYINTDNEIGGPWGQGTLVTVKPGGSGGSEVQLLESGGGEVQPGGSLRLSCAASGSISIFSMYVVAWYRQAPGKEREWVAFIQRGGTANYAESAKGRFTISRDNAKNTVYLQMSSLRAEDTAVYYCNYINTDNEIGGPWGQGTLVTVKPGGGGDKTHTCPPCPAPGGPSVFLFPPKPKDTLMISRTPEVTCVVVDVSHEDPEVKFNWYVDGVEVHNAKTKPREEQYNSTYRVVSVLTVLHQDWLNGKEYKCKVSNKALPAPIEKTISKAKGQPREPQVYTLPPSRDELTKNQVSLTCLVKGFYPSDIAVEWESNGQPENNYKTTPPVLDSDGSFFLYSKLTVDKSRWQQGNVFSCSVMHEALHNHYTQKSLSLSPGK
notes: Homodimer through the Fc; also called cx11580
potency of eosinophil killing in the presence of IL-5, fold improvement over the afucosylated AK002 analog [2]: ~30 fold
potency of eosinophil killing in the presence of IL-5, fold increase compared to bivalent hzSiglec8-G2v14-Fc [2]: 10 fold

Bmax [6]: 1.39e+06 Median (anti-human A647)
Kd [8]: 97.9 pM
B3: Siglec8 hzG2v33, monomeric VHH-hIgG1 fusion (Fc NNT) (Fc fusion)
chain: EVQLLESGGGEVQTGGSLRLSCAASGSISIFSMYVVAWYRQAPGKQREWVAFIQRGGTANYAESAKGRFTISRDNAKNTVYLQMSSLRADDTAVYYCNYINSDNEIGGPWGQGTLVTVKP
notes: Monomeric format; not shown: non-dimerizing human IgG1 Fc variant lacking a hinge (Fc NNT)

Bmax [6]: 1.45e+06 Median (anti-human A647)
Kd [8]: 64.3 pM
B4: Siglec8 hzG2v32, monomeric VHH-hIgG1 fusion (Fc NNT) (Fc fusion)
chain: B3 chain with A89P, D90E
notes: as for B3

Continued, binder first:

B2: llama anti-Siglec8-G2 VHH (lmG2), monomeric VHH-hIgG1 fusion (Fc NNT) (Fc fusion)
chain: B3 chain with E1Q, Q3T, L5K, E11L, Q13R, E63D, S85A, R88K, A89P, L115Q
notes: Monomeric format; also called parental clone; not shown: non-dimerizing human IgG1 Fc variant lacking a hinge (Fc NNT)
Bmax [3]: 1.36e+06 Median (anti-human A647)
Kd [4]: 124 pM
Kd [5]: 114 pM
Bmax [6]: 1.15e+06 Median (anti-human A647)
Bmax [7]: 1.28e+06 Median (anti-human A647)
Kd [8]: 63.7 pM

B5: hexavalent hzSiglec8-G2v14-Fc (xELL) (Fc fusion)
chain: EVQLLESGGGEVQPGGSLRLSCAASGSISIFSMYVVAWYRQAPGKEREWVAFIQRGGTANYAESAKGRFTISRDNAKNTVYLQMSSLRAEDTAVYYCNYINTDNEIGGPWGQGTLVTVKPGGSGGSEVQLLESGGGEVQPGGSLRLSCAASGSISIFSMYVVAWYRQAPGKEREWVAFIQRGGTANYAESAKGRFTISRDNAKNTVYLQMSSLRAEDTAVYYCNYINTDNEIGGPWGQGTLVTVKPGGSGGSEVQLLESGGGEVQPGGSLRLSCAASGSISIFSMYVVAWYRQAPGKEREWVAFIQRGGTANYAESAKGRFTISRDNAKNTVYLQMSSLRAEDTAVYYCNYINTDNEIGGPWGQGTLVTVKPGGGGDKTHTCPPCPAPGGPSVFLFPPKPKDTLMISRTPEVTCVVVDVSHEDPEVKFNWYVDGVEVHNAKTKPREEQYNSTYRVVSVLTVLHQDWLNGKEYKCKVSNKALPAPIEKTISKAKGQPREPQVYTLPPSRDELTKNQVSLTCLVKGFYPSDIAVEWESNGQPENNYKTTPPVLDSDGSFFLYSKLTVDKSRWQQGNVFSCSVMHEALHNHYTQKSLSLSPGK
notes: Homodimer through the Fc; also called cx11579
EC50 (read off the curve) [1]: ~20 pM
